We go through one molecule from paper PMC13281853 (The FASEB Journal, 2022).

For series [1], the target named is ancGR2-LBD (ligand-binding domain of the ancestral glucocorticoid receptor 2), Dex-bound. The series can be described thus: SPR. (In general: Surface plasmon resonance follows binding to a sensor surface in real time, without labels.)
Series [2] concerns the molecule itself. Briefly: SPR.

By Kd is commonly meant a measure of binding affinity in units of concentration. The low end stands for a tighter complex, the high end for a looser complex.

B1: MR-LBD (ligand-binding domain of the mineralocorticoid receptor), Dex-bound (domain or fragment)
chain: QLSTISRALTPSPVMVLENIEPEIVYAGYDSSKPDTAENLLSTLNRLAGKQMIQVVKWAKVLPGFKNLPLEDQITLIQYSWMCLSSFALSWRSYKHTNSQFLYFAPDLVFNEEKMHQSAMYELCQGMHQISLQFVRLQLTFEEYTIMKVLLLLSTIPKDGLKSQAAFEEMRTNYIKELRKMVTKCPNNSGQSWQRFYQLTKLLDSMHDLVSDLLEFCFYTFRESHALKVEFPAMLVEII
B1: the Kd in series [1] stood at 11.6 ± 1.5 µM; in series [2], 1.49 ± 0.41 µM.
